From PMC2786213

Columns and labels:
[1] = target: discoidin domain receptor 1 (DDR1), mouse DDR1a, tagged with cyan or yellow fluorescent protein (mouse); test: FRET or BRET
[2] = FRET or BRET

Sequence of discoidin domain receptor 1 (DDR1), mouse DDR1a, tagged with cyan or yellow fluorescent protein (Q03146 20-911): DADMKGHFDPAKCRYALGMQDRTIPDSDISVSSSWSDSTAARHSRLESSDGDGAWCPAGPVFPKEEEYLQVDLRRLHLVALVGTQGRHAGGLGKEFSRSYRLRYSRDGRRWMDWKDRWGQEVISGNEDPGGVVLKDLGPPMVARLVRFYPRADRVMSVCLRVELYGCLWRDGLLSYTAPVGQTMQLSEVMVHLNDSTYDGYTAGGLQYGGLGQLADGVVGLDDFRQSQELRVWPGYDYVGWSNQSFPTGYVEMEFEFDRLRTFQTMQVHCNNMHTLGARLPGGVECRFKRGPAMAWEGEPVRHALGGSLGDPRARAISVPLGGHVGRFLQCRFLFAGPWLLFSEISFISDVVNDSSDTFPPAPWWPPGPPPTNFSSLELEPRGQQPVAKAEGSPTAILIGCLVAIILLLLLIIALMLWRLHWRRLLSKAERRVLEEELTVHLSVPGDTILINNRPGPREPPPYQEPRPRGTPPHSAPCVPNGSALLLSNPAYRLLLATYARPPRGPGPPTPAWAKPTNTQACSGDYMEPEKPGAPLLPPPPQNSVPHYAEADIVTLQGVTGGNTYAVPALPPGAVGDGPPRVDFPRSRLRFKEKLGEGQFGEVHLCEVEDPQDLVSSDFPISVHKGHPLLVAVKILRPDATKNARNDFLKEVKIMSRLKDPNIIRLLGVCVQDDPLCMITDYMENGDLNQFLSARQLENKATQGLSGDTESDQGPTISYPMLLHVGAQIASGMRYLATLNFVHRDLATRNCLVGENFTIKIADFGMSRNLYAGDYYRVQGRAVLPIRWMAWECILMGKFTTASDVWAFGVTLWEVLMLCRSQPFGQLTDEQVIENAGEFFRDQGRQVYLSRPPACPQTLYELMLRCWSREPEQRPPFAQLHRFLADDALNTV

FRET index FC/A (0 min, no collagen) [1]: 5.1
Substance: discoidin domain receptor 1 (DDR1), mouse DDR1a, tagged with cyan or yellow fluorescent protein
FRET index FC/A (collagen 5 min, aggregated ROI) [2]: 14.6 | FRET index FC/A (collagen 30 min, aggregated ROI) [2]: 15.2 | FRET index FC/A (collagen 60 min, aggregated ROI) [2]: 13.8 | FRET index FC/A (collagen 60 min, nonaggregated ROI) [2]: 5.2
